Assay results published in the nanobody polyreactivity screen of Harvey et al. (2022).

Test: yeast display, Sf9 membrane polyspecificity reagent, FACS + sequencing; frameworks hold sequencing errors
Method in brief: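 In a synthetic yeast display library (Saccharomyces cerevisiae BJ5465), nanobody expression was induced with galactose for 36–48 hours. FACS gates were set low and high (top ~1%) using anti-HA fluorescence for expression and streptavidin fluorescence for binding of the Sf9 membrane reagent. Each polyreactivity label is drawn from the gate of origin.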

Sequence | polyreactivity (PSR sort gate)
QVQLVESGGGLVQEGGSLRLICAASGFTFGAHGMGWYRQAPGKERELVAANNSRGSRTYYADSGKGRFTISRDNPKNTVFFQMNSLQPDDTAVYYCAADYYAFKFGRFDYWGHGTQVTVSS | high polyreactivity
QVQLVESGGGLVQEGGSLRLICAASGRIFRYYAMGWYRQAPGKERELVASITYSGGRTNYADSVKGRFTISRDNAKNTVYVQMNSLKPEDTAVYYCNAAYVYYYPHYRYAPTAVDYDYWGQGTQVTVSS | low polyreactivity
QVQLVESGGGLVQEGGSLRLRCAASGRTFPINAMGWYRQAPGKERELVASIRWTDGTTYYADSVKGRFTISRDTAKNTVYLQMNSLKPEDTAVYYCAADAEGSASKYVYWGQGTQVTVSS | low polyreactivity
QVQLVESGGGLVQEGGSLRLSCAAAGIIFIAYAMGWYREAPGKERELVADISIGGSTNYADSVKGRFTISRDNAKNTVYLQMTSQKPEDTAVYYCNAGGGFYGSTVEHDYWGQGTQVSVSS | low polyreactivity
QVQLVESGGGLVQEGGSLRLSCAASGFIFYRYTKGWYRQAPGKERELVAGISSRGTRTYYADSVKGRFTISRDNAKNTVYLQMNSLKPEDNAVYYCAKVDGSKRYNYWGQGTQVTVSS | high polyreactivity
QVQLVESGGGLVQEGGSLRLSCAASGFTFDDYAMGWYRQAPGKERELVATITNSDSSTYYADSVKGRFTISRDNEKNTFYLQMNSLQPVDTAVYYCAADGRYAYGYNHWGHGTQVTVSS | low polyreactivity
QVQLVESGGGLVQEGGSLRLSCAASGFTYYHYAMGWYRHAPGKERELVAAITWSGGDTYYADSVKGRFTISRDNAKNTVYLQMNSLKPDDTAVYYCNADDPPGARYFDSFDYRGDYWGQGTQVTVSS | low polyreactivity
QVQLVESGGGLVQEGGSLRLSCAASGIIFGPYVMGWYRQAPGKERELVATISRTGDTYYADSVKGRFTISRDNAKNTVYLQMNSVKPEDTAVYYCNTQDHGYGFTMDYWGQGTQVTVSS | low polyreactivity
QVQLVESGGGLVQEGGSLRLSCAASGIIHYYYVMGWYRPAPGKERELVAAINRSGTATYYADSVKGRFTISRDNAKNTVYFQMNSLIPEDTAVYYCAADVRWRYYWGQGTQVTVSS | high polyreactivity
QVQLVESGGGLVQEGGSLRLSCAASGITFGRYAMGWYRQAPGKERELVAAITTRGGSTYYADSVKGRFTISRDNAKNTVYLQMNSLKPEDTAVYYCAARVPGVSVKNDYCGQGTQVTVSS | high polyreactivity
QVQLVESGGGLVQEGGSLRLSCAASGITFSYYAMGWYREAPGKEREWVATIRSSGGSTYYADSVKGRFTISRENAKNTVYLQMNSQKPEDTAVYYCAVRLWFDYNYWGQGTQVTVSS | low polyreactivity
QVQLVESGGGLVQEGGSLRLSCAASGNIFRAYGMGWYRQAPGKERELVAAIDTTGGRTYYADSVKGRFTISRDNAKNTVYLQMNSLKPEDTAVYYCAVRAPAYPYYRGFDYWGQGTQVTVSS | low polyreactivity
QVQLVESGGGLVQEGGSLRLSCAASGNIFRINGMGWYRQAPGKERELVATITGNGGSTYYAASVKGRFTISRDNAQNTVYLQMNSLKPEDTAVFYCAAQTTVYIYDYWGQGTQVTVSS | low polyreactivity
QVQLVESGGGLVQEGGSLRLSCAASGRIFVGNAMGWYRQAPGKERELVASMTRGRRTNYADSVKGRFTISRDNAKNTVFFQMNSLKPVDTAVYYCNAPGVTRAYLVGYDYWGQGTQVTVSS | low polyreactivity
QVQLVESGGGLVQEGGSLRLSCAASGRIFYFYAMGRYRQAPGKERELVADIDWSGDSTYYADSVKGRFTISRDNAKITVYLQMNSLIPEDTAVYYCNAAYYYYSTSYTYDYWGQGTQVTVSS | low polyreactivity
QVQLVESGGGLVQEGGSLRLSCAASGRILSPNAMGWYRQAPGKERELVATITRSGGSTYYADSVKGRFTISRDNAKNTVYLQMNSLKPEDTAVYYCAKLHTYPWIHDYWGQGTQVTVSS | low polyreactivity
